{"source": "the MegaScale stability set (Tsuboyama et al. 2023)", "parents": {"B1": {"name": "EEHEE_rd3_0130 (parent)", "chain": "TKIIVNGKTFTAPTEEEAQKIAEKLAKKAGLTVHKKNGTFELK"}}}
{"variants_of": "B1", "assay": "folding stability dG (cDNA display proteolysis); higher = more stable", "details": "PBS, room temperature", "units": {"folding stability dG": "kcal/mol"}}
{"variant": "TKIIVNGKTFTAPTEEEAQKIAEKMAKKAGLTVHKKNGTFELK", "note": "[L25M]", "folding stability dG": 0.784}
{"variant": "TKIIVNGKTFTAPTEEEAQKIAEKLAKKAGLTVHKKNGTFELT", "note": "[K43T]", "folding stability dG": 1.07}
{"variant": "TKIIVNGKTFTAPTEEEAQKIAEKLAKKAGLTVHKKNGTFELY", "note": "[K43Y]", "folding stability dG": 1.15}
{"variant": "TKIIVNGKTFTSPTEEEAQKIAEKLAKKAGLTVHKKNGTFELK", "note": "[A12S]", "folding stability dG": 0.182}
{"variant": "TKIIVNGKTFTQPTEEEAQKIAEKLAKKAGLTVHKKNGTFELK", "note": "[A12Q]", "folding stability dG": -0.091}
{"variant": "TKIIVNGKTFTAPTEEEAQKIAEKLAKKAGLTVHKKNGTFPLK", "note": "[E41P]", "folding stability dG": 0.028}
{"variant": "TKIIVNGKTFFAPTEEEAQKIAEKLAKKAGLTVHKKNGTFELK", "note": "[T11F]", "folding stability dG": 1.38}
{"variant": "TKIIVNGKTFMAPTEEEAQKIAEKLAKKAGLTVHKKNGTFELK", "note": "[T11M]", "folding stability dG": 0.947}
{"variant": "TKIIVNGKMFTAPTEEEAQKIAEKLAKKAGLTVHKKNGTFELK", "note": "[T9M]", "folding stability dG": 0.652}
{"variant": "TKIIVNGKYFTAPTEEEAQKIAEKLAKKAGLTVHKKNGTFELK", "note": "[T9Y]", "folding stability dG": 0.633}
{"variant": "TKIIVNGKTFTAPTEEEAQKSAEKLAKKAGLTVHKKNGTFELK", "note": "[I21S]", "folding stability dG": -0.174}
{"variant": "TKIIVNGKTFTAPTEEEAQKEAEKLAKKAGLTVHKKNGTFELK", "note": "[I21E]", "folding stability dG": -0.19}
{"variant": "TKIIVNGKTFTAPTEEEAQKNAEKLAKKAGLTVHKKNGTFELK", "note": "[I21N]", "folding stability dG": -0.725}
{"variant": "TKIIVNGKTFTAPFEEEAQKIAEKLAKKAGLTVHKKNGTFELK", "note": "[T14F]", "folding stability dG": -0.544}
{"variant": "TKIIVNGKTFTAPTEEEAQKIAEKLAKKAELTVHKKNGTFELK", "note": "[G30E]", "folding stability dG": -0.258}
{"variant": "TKIIVNGKTFTAPTEEEAQKIAEKLAKKAKLTVHKKNGTFELK", "note": "[G30K]", "folding stability dG": 0.272}
{"variant": "TKIIVNGKTFTAPTEEEIQKIAEKLAKKAGLTVHKKNGTFELK", "note": "[A18I]", "folding stability dG": -0.353}
{"variant": "TKIIVNGKTFTAPTEEEYQKIAEKLAKKAGLTVHKKNGTFELK", "note": "[A18Y]", "folding stability dG": -0.863}
{"variant": "TKIIVNGKTFTAPTEEEWQKIAEKLAKKAGLTVHKKNGTFELK", "note": "[A18W]", "folding stability dG": -0.4}
{"variant": "TKIIVNGKTFTAPTEEEEQKIAEKLAKKAGLTVHKKNGTFELK", "note": "[A18E]", "folding stability dG": -0.74}
{"variant": "TKIIVNGKTYTAPTEEEAQKIAEKLAKKAGLTVHKKNGTFELK", "note": "[F10Y]", "folding stability dG": 0.851}
{"variant": "TKIIVNGKTVTAPTEEEAQKIAEKLAKKAGLTVHKKNGTFELK", "note": "[F10V]", "folding stability dG": -0.708}
{"variant": "TKIIVNGKTFTAPTEEEAQKIANKLAKKAGLTVHKKNGTFELK", "note": "[E23N]", "folding stability dG": 0.832}
{"variant": "TKIIVNGKTFTAPTEEEAQKIADKLAKKAGLTVHKKNGTFELK", "note": "[E23D]", "folding stability dG": 0.78}
{"variant": "TKIIVNGKTFTAPTEEEAQKIAGKLAKKAGLTVHKKNGTFELK", "note": "[E23G]", "folding stability dG": 0.246}
{"variant": "TKIIVNPKTFTAPTEEEAQKIAEKLAKKAGLTVHKKNGTFELK", "note": "[G7P]", "folding stability dG": -0.749}
{"variant": "TKIIVNKKTFTAPTEEEAQKIAEKLAKKAGLTVHKKNGTFELK", "note": "[G7K]", "folding stability dG": 0.029}
{"variant": "TKIIVNNKTFTAPTEEEAQKIAEKLAKKAGLTVHKKNGTFELK", "note": "[G7N]", "folding stability dG": 0.208}
{"variant": "TKIIVNQKTFTAPTEEEAQKIAEKLAKKAGLTVHKKNGTFELK", "note": "[G7Q]", "folding stability dG": 0.025}
{"variant": "TKIIVNGKTFTAPTEEEAQKIVEKLAKKAGLTVHKKNGTFELK", "note": "[A22V]", "folding stability dG": 0.71}
{"variant": "TKIIVNGKTFTAPTEEEAQKICEKLAKKAGLTVHKKNGTFELK", "note": "[A22C]", "folding stability dG": 0.374}
{"variant": "TKIIVNGKTFTAPTEEEAQKIHEKLAKKAGLTVHKKNGTFELK", "note": "[A22H]", "folding stability dG": -0.772}
{"variant": "I3D", "folding stability dG": -0.633}
{"variant": "TKVIVNGKTFTAPTEEEAQKIAEKLAKKAGLTVHKKNGTFELK", "note": "[I3V]", "folding stability dG": 0.523}
{"variant": "TKWIVNGKTFTAPTEEEAQKIAEKLAKKAGLTVHKKNGTFELK", "note": "[I3W]", "folding stability dG": -0.228}
{"variant": "TKIIVNGMTFTAPTEEEAQKIAEKLAKKAGLTVHKKNGTFELK", "note": "[K8M]", "folding stability dG": 0.926}
{"variant": "TKIIVNGKTFTAPTEEEAQKIAEKLAKKAGLTVHKKPGTFELK", "note": "[N37P]", "folding stability dG": 0.201}
{"variant": "TKIIVNGKTFTAPTEEEAQKIAEKLAKKCGLTVHKKNGTFELK", "note": "[A29C]", "folding stability dG": 2.56}
{"variant": "TKIIVNGKTFTAPTEEEAQKIAEKLAKKLGLTVHKKNGTFELK", "note": "[A29L]", "folding stability dG": 2.45}
{"variant": "TKIIVNGKTFTAPTEEEAQKIAEKLAKKDGLTVHKKNGTFELK", "note": "[A29D]", "folding stability dG": 0.326}
{"variant": "TKIIVNGKTFTAPTEEEAQKIAEKLAKKRGLTVHKKNGTFELK", "note": "[A29R]", "folding stability dG": 1.04}
{"variant": "TKIIVNGKTFTAPTEEEAQKIAEKLAKKFGLTVHKKNGTFELK", "note": "[A29F]", "folding stability dG": 2.88}
{"variant": "TKIIVNGKTFTAPTEEEAQKIAEKLAKKAGLTVPKKNGTFELK", "note": "[H34P]", "folding stability dG": -0.455}
{"variant": "TKIIVNGKTFTAPTEEEAQKIAEKLAKKAGLTVGKKNGTFELK", "note": "[H34G]", "folding stability dG": 0.117}
{"variant": "TKIIVNGKTFTAPTEEEAQKIAEKLAKKAGLTVHKWNGTFELK", "note": "[K36W]", "folding stability dG": 0.712}
{"variant": "TKIIVNGKTFTAPTEEEAQKIAEKLAKKAGLTVHKQNGTFELK", "note": "[K36Q]", "folding stability dG": 0.8}
{"variant": "TKIIVNGKTFTAPTEEEAQKIAEKLAKFAGLTVHKKNGTFELK", "note": "[K28F]", "folding stability dG": 0.971}
{"variant": "TKIIVNGKTFTAPTEEEAQKIAEKLAKQAGLTVHKKNGTFELK", "note": "[K28Q]", "folding stability dG": 0.873}
{"variant": "TKIIVNGKTFTAPTEEPAQKIAEKLAKKAGLTVHKKNGTFELK", "note": "[E17P]", "folding stability dG": -0.793}
{"variant": "TKIIVNGKTFTAPTEEMAQKIAEKLAKKAGLTVHKKNGTFELK", "note": "[E17M]", "folding stability dG": 1.19}
{"variant": "TKIIVNGKTFTAPTEEAAQKIAEKLAKKAGLTVHKKNGTFELK", "note": "[E17A]", "folding stability dG": 0.997}
{"variant": "TKIIVNGKTFTAPTEEIAQKIAEKLAKKAGLTVHKKNGTFELK", "note": "[E17I]", "folding stability dG": 1.33}
{"variant": "TKIIVNGKTFTAPTEEEAAKIAEKLAKKAGLTVHKKNGTFELK", "note": "[Q19A]", "folding stability dG": 0.824}
{"variant": "TKIIVNGKTFTAPTEEEAMKIAEKLAKKAGLTVHKKNGTFELK", "note": "[Q19M]", "folding stability dG": 0.872}
{"variant": "TKIIVNGKTFTAPTEEEAGKIAEKLAKKAGLTVHKKNGTFELK", "note": "[Q19G]", "folding stability dG": 0.357}
{"variant": "TKIIVNGKTFTAPTEEEATKIAEKLAKKAGLTVHKKNGTFELK", "note": "[Q19T]", "folding stability dG": 0.379}
{"variant": "TKIIVNGKTFTAPTEEEAQKIAEKLAKKAGLTVHKKNETFELK", "note": "[G38E]", "folding stability dG": 0.033}
{"variant": "TKIIINGKTFTAPTEEEAQKIAEKLAKKAGLTVHKKNGTFELK", "note": "[V5I]", "folding stability dG": 1.13}
{"variant": "TKIIKNGKTFTAPTEEEAQKIAEKLAKKAGLTVHKKNGTFELK", "note": "[V5K]", "folding stability dG": -0.361}
{"variant": "TKIIHNGKTFTAPTEEEAQKIAEKLAKKAGLTVHKKNGTFELK", "note": "[V5H]", "folding stability dG": 0.397}
